One test deals with 刺突S蛋白-鼠Fc融合蛋白(S-mFc) (SARS-CoV-2; mouse, UniProt P0DTC2 14-1213). The experiment in a line: FACS competition: antibody blocks binding of S-mFc to 293T-ACE2 cells.
Test [1] deals with T1, SARS-CoV-2 S1蛋白 (ACRO Biosystems) (SARS-CoV-2, UniProt P0DTC2 16-685).
T1 construct: domain: S1
As to the kind of experiment: competition ELISA, S1 coated, HRP-hACE2-Fc as competitor. For orientation: In an ELISA, binding on a coated surface is turned into a signal by an enzyme label.

The term IC50 denotes the concentration needed to halve the response being measured. One may read the EC50 as the concentration needed to bring the measured effect to its halfway point.

B1: 鼠源单克隆抗体S1B-82-5 (antibody, V domains shown)
VH: EVILVESGGGLVKPGGSLKLSCAASGFTFSSYAMSWIRQTPEKRLEWGATINSGGNFIYYPDSVKGRFTISRDNAKNTLYLQMSSLRSEDTAMYFCGRHSGNYVDSAMDYWGQGTSVTVSS
VL: QIVLTQSPAIMSASLGEEITLTCSASSSVSDMHWYQQKSGSSPKLLIYSTSNLASGVPSRFSGSGSGTFYSLTVSSVEAEDAADYYCHQWSTWTFGGGTKLEIK
notes: also called 鼠源抗体S1B-82-5; 鼠抗S1B-82-5
B1 returned an IC50 with 刺突S蛋白-鼠Fc融合蛋白(S-mFc) of 0.016 µg/mL.

B2: 人源化抗体hS1B-82-5 (antibody, V domains shown)
VH: EVILSESGGGSVKPGGSLRLSCAASGFTFSSYAMSWIRQAPGKRLEWGSTINSGGNFIYYPDSVKGRFTISRDNAKNSLYLQMNSLRAEDTAVYFCGRHSGNYVDSAMDYWGQGTTVTVSS
VL: EIVLTQSPATLSVSPGERATLSCSASSSVSDMHWYQQKPGKSPKLLIYSTSNLASGVPSRFSGSGSGTEYTLTISSLQPEDVATYYCHQWSTWTFGGGTKVEIKR
notes: also called 抗SARS-CoV-2 S1人源化抗体; 人源化单克隆抗体hS1B-82-5
In test [1], B2 returned an EC50 of 0.166 µg/mL. This molecule displayed an IC50 with 刺突S蛋白-鼠Fc融合蛋白(S-mFc) of 0.0193 µg/mL.

Source of the values: CN114106162A (ANYUAN MEDICINE SCIENCE AND TECH SHANGHAI LIMITED COMPANY, dated 2022).
